Read-outs that look alike come from different tables or passages of the source. Values belong to the binder of their own block, whether it stands above or below them. Square brackets hold non-standard residues; d marks the D form. Ends that are not written are not given here. Nle = CCCC[C@H](N)C(=O)O
Experiments:
[1] = molecular target: T1, melanocortin-1 receptor (MC1-R) of B-16 mouse melanoma cells (mouse, UniProt Q01727 1-315); assay: 125I-NDP-α-MSH competition, B-16 membranes
T1 construct: whole, on cells; membranes prepared from the cells were used; also called Melanocortin Receptor 1
T1 sequence (Q01727 whole entry): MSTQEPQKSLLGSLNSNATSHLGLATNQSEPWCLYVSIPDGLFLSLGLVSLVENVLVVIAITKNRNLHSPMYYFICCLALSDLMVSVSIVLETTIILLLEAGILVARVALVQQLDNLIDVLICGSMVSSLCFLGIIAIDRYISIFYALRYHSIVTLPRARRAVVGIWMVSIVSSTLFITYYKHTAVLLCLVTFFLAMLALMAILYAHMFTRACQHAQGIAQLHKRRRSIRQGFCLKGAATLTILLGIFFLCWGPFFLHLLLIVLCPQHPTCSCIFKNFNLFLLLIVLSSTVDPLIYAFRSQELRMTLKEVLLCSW
Description: (§1) The competitive inhibition binding assay was conducted using membranes prepared from hMC3-R, hMC4-R, hMC5-R, and B-16 mouse melanoma cells (containing MC1-R) using 0.4 nM ¹²⁵I-NDP-alpha-MSH (New England Nuclear, Boston, Mass., USA) in 50 mM HEPES buffer containing 1 mM MgCl₂, 2 mM CaCl₂, and 5 mM KCl, at pH 7.2. […] Incubation was for 90 minutes at room temperature, after which the assay mixture was filtered and the membranes washed three times with ice cold buffer. The filter was dried and counted in a gamma counter for remaining radioactivity bound to the membranes. 100% specific binding was defined as the difference in radioactivity (cpm) bound to cell membranes in the absence and presence of 1 μM α-MSH. […] Each assay was conducted in triplicate and the actual mean valves are described.

[2] = molecular target: T2, human melanocortin-3 receptor (hMC3-R) (human, UniProt P41968 1-323); assay: 125I-NDP-α-MSH competition, hMC3-R membranes
T2 construct: whole, on cells; membranes prepared from hMC3-R cells were used; also called Melanocortin Receptor 3
T2 sequence (P41968 whole entry): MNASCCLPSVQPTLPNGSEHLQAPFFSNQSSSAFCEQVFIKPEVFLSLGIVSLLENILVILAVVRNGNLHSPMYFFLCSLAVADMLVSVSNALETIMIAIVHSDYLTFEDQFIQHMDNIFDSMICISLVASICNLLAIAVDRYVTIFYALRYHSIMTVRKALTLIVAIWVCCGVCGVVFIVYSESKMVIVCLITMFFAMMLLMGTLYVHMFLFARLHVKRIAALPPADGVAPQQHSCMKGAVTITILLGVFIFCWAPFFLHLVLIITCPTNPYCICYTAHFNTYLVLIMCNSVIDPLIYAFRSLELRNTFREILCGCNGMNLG
Description: as §1

[3] = molecular target: T3, human melanocortin-4 receptor (hMC4-R) (human, UniProt P32245 1-332); assay: 125I-NDP-α-MSH competition, hMC4-R membranes
T3 construct: whole, on cells; membranes prepared from hMC4-R cells were used; also called Melanocortin Receptor 4
T3 sequence (P32245 whole entry): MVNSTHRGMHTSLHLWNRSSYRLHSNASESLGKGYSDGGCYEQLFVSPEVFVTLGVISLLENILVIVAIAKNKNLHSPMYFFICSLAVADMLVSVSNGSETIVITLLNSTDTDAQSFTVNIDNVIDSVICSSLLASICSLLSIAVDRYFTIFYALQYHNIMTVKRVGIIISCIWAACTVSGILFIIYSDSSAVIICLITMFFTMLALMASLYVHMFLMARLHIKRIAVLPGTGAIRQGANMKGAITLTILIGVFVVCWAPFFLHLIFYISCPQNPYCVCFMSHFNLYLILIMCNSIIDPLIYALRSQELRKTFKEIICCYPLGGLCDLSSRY
Description: as §1

[4] = molecular target: T4, human melanocortin-5 receptor (hMC5-R) (human, UniProt P33032 1-325); assay: 125I-NDP-α-MSH competition, hMC5-R membranes
T4 construct: whole, on cells; membranes prepared from hMC5-R cells were used; also called Melanocortin Receptor 5
T4 sequence (P33032 whole entry): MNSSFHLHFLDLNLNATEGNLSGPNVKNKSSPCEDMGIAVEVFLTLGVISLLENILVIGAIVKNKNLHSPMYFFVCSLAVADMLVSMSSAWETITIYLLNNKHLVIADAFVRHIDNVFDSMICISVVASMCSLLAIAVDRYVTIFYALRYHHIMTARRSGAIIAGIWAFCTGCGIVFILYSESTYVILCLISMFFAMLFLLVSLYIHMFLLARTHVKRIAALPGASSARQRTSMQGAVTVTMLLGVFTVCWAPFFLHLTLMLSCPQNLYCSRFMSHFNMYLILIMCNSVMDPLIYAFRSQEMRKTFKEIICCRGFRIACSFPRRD
Description: as §1

[5] = molecular target: T1, melanocortin-1 receptor (MC1-R) of B-16 …; assay: 125I-NDP-α-MSH competition, B-16 membranes; remark: listed apart in the source
Description: as §1
(§2) The methods and assays set forth in Example 1 were followed.

[6] = molecular target: T2, human melanocortin-3 receptor (hMC3-R); assay: 125I-NDP-α-MSH competition, hMC3-R membranes; remark: listed apart in the source
Description: as §1, §2

[7] = molecular target: T3, human melanocortin-4 receptor (hMC4-R); assay: 125I-NDP-α-MSH competition, hMC4-R membranes; remark: listed apart in the source
Description: as §1, §2

[8] = molecular target: T4, human melanocortin-5 receptor (hMC5-R); assay: 125I-NDP-α-MSH competition, hMC5-R membranes; remark: listed apart in the source
Description: as §1, §2

B1: metallopeptide 4-5 (peptide)
peptide: YV[Nle]GHFRCWDRF-NH2
modifications: also: oxorhenium(V) N3S1 chelate: C8 SG + backbone N of F6, R7, C8, bridge at 8 via Re(V)=O, other end not in the chain
% Inhibition at 1 µM [5]: 89%
% Inhibition at 1 µM [6]: 87%
% Inhibition at 1 µM [7]: 74%
% Inhibition at 1 µM [8]: 68%

Binder: Ac-SYS[Nle]EHF[dC]RWGKPV-NH2 (also: oxorhenium(V) N3S1 chelate at D-Cys8) [metallopeptide 2-7]
% Inhibition at 1 µM [5]: 54%
% Inhibition at 1 µM [6]: 0%
% Inhibition at 1 µM [7]: 6%
% Inhibition at 1 µM [8]: 0%

Binder: Ac-SYS[Nle]EHCFRWGKPV-NH2 (also: oxorhenium(V) N3S1 chelate at Cys7) [metallopeptide 1-8]
% Inhibition at 1 µM [1]: 42%
% Inhibition at 1 µM [2]: 0%
% Inhibition at 1 µM [3]: 0%

B2: metallopeptide 4-3 (peptide)
peptide: YV[Nle]GHFRWDCRF-NH2
modifications: also: oxorhenium(V) N3S1 chelate: C10 SG + backbone N of W8, D9, C10, bridge at 10 via Re(V)=O, other end not in the chain
% Inhibition at 1 µM [5]: 44%
% Inhibition at 1 µM [6]: 18%
% Inhibition at 1 µM [7]: 23%
% Inhibition at 1 µM [8]: 65%

Binder: Ac-SYS[Nle]EHFRWGCKPV-NH2 (also: oxorhenium(V) N3S1 chelate at Cys11) [metallopeptide 1-4]
% Inhibition at 1 µM [1]: 72%
% Inhibition at 1 µM [2]: 0%
% Inhibition at 1 µM [3]: 0%

B5: metallopeptide 2-1 (peptide)
peptide: SYSXEHFRWGKGVC
modifications: N-terminal acetyl; Nle 4 (X in letters); D-Cys 14; C-terminal amide; Re complexed at D-Cys 14
% Inhibition at 1 µM [5]: 97%
% Inhibition at 1 µM [6]: 72%
% Inhibition at 1 µM [7]: 46%
% Inhibition at 1 µM [8]: 53%

Binder: Ac-SYS[Nle]EHFRW[dC]GKPV-NH2 (also: oxorhenium(V) N3S1 chelate at D-Cys10) [metallopeptide 2-5]
% Inhibition at 1 µM [5]: 43%
% Inhibition at 1 µM [6]: 0%
% Inhibition at 1 µM [7]: 4%
% Inhibition at 1 µM [8]: 0%

B6: metallopeptide 4-2 (peptide)
peptide: YV[Nle]GHFRWDRCF-NH2
modifications: also: oxorhenium(V) N3S1 chelate: C11 SG + backbone N of D9, R10, C11, bridge at 11 via Re(V)=O, other end not in the chain
% Inhibition at 1 µM [5]: 75%
% Inhibition at 1 µM [6]: 49%
% Inhibition at 1 µM [7]: 23%
% Inhibition at 1 µM [8]: 51%

Binder: Ac-SYS[Nle]EHFRWGKCPV-NH2 (also: oxorhenium(V) N3S1 chelate at Cys12) [metallopeptide 1-3]
% Inhibition at 1 µM [1]: 87%
% Inhibition at 1 µM [2]: 0%
% Inhibition at 1 µM [3]: 0%
% Inhibition at 1 µM [4]: 12%

Binder: Ac-SYS[Nle]EHFRWGKGCV-NH2 (also: oxorhenium(V) N3S1 chelate at Cys13) [metallopeptide 1-2]
% Inhibition at 1 µM [1]: 87%
% Inhibition at 1 µM [3]: 0%
% Inhibition at 1 µM [4]: 37%

Further lines, results first:

% Inhibition at 1 µM [1]: 68%
% Inhibition at 1 µM [2]: 0%
% Inhibition at 1 µM [3]: 0%
% Inhibition at 1 µM [4]: 0%
Binder: Ac-SYS[Nle]EHFCRWGKPV-NH2 (also: oxorhenium(V) N3S1 chelate at Cys8) [metallopeptide 1-7]

% Inhibition at 1 µM [5]: 93%
% Inhibition at 1 µM [6]: 26%
% Inhibition at 1 µM [7]: 28%
% Inhibition at 1 µM [8]: 32%
Binder: Ac-SYS[Nle]EHFRWGKG[dC]V-NH2 (also: oxorhenium(V) N3S1 chelate at D-Cys13) [metallopeptide 2-2]

% Inhibition at 1 µM [1]: 29%
% Inhibition at 1 µM [2]: 0%
% Inhibition at 1 µM [3]: 0%
% Inhibition at 1 µM [4]: 0%
Binder: Ac-SYS[Nle]EHFRCWGKPV-NH2 (also: oxorhenium(V) N3S1 chelate at Cys9) [metallopeptide 1-6]

% Inhibition at 1 µM [1]: 74%
% Inhibition at 1 µM [2]: 0%
% Inhibition at 1 µM [4]: 6%
Binder: Ac-SYS[Nle]ECHFRWGKPV-NH2 (also: oxorhenium(V) N3S1 chelate at Cys6) [metallopeptide 1-9]

% Inhibition at 1 µM [1]: 72%
% Inhibition at 1 µM [2]: 0%
% Inhibition at 1 µM [4]: 5%
Binder: Ac-SYS[Nle]CEHFRWGKPV-NH2 (also: oxorhenium(V) N3S1 chelate at Cys5) [metallopeptide 1-10]

% Inhibition at 1 µM [5]: 91%
% Inhibition at 1 µM [6]: 27%
% Inhibition at 1 µM [7]: 40%
% Inhibition at 1 µM [8]: 21%
Binder: Ac-SYS[Nle]EHFRWG[dC]KPV-NH2 (also: oxorhenium(V) N3S1 chelate at D-Cys11) [metallopeptide 2-4]

% Inhibition at 1 µM [1]: 99%
% Inhibition at 1 µM [5]: 99%
B3: α-MSH parent polypeptide Ac-Ser-Tyr-Ser-Met-Glu-His-Phe-Arg-Trp-Gly-Lys-Pro-Val-NH2 (peptide)
peptide: Ac-SYSMEHFRWGKPV-NH2
notes: not complexed to Re; also called α-MSH analog

% Inhibition at 1 µM [1]: 57%
% Inhibition at 1 µM [2]: 0%
% Inhibition at 1 µM [3]: 0%
% Inhibition at 1 µM [4]: 0%
Binder: Ac-SYS[Nle]EHFRWCGKPV-NH2 (also: oxorhenium(V) N3S1 chelate at Cys10) [metallopeptide 1-5]

% Inhibition at 1 µM [5]: 91%
% Inhibition at 1 µM [6]: 41%
% Inhibition at 1 µM [7]: 25%
% Inhibition at 1 µM [8]: 38%
Binder: Ac-SYS[Nle]EHFRWGK[dC]PV-NH2 (also: oxorhenium(V) N3S1 chelate at D-Cys12) [metallopeptide 2-3]

% Inhibition at 1 µM [5]: 52%
% Inhibition at 1 µM [6]: 20%
% Inhibition at 1 µM [7]: 39%
% Inhibition at 1 µM [8]: 47%
B4: metallopeptide 4-4 (peptide)
peptide: YV[Nle]GHFRWCDRF-NH2
modifications: also: oxorhenium(V) N3S1 chelate: C9 SG + backbone N of R7, W8, C9, bridge at 9 via Re(V)=O, other end not in the chain

% Inhibition at 1 µM [5]: 46%
% Inhibition at 1 µM [6]: 2%
% Inhibition at 1 µM [7]: 6%
% Inhibition at 1 µM [8]: 6%
Binder: Ac-SYS[Nle]EHFR[dC]WGKPV-NH2 (also: oxorhenium(V) N3S1 chelate at D-Cys9) [metallopeptide 2-6]

% Inhibition at 1 µM [1]: 95%
% Inhibition at 1 µM [2]: 18%
% Inhibition at 1 µM [3]: 21%
% Inhibition at 1 µM [4]: 6%
Binder: Ac-SYSC[Nle]EHFRWGKPV-NH2 (also: oxorhenium(V) N3S1 chelate at Cys4) [metallopeptide 1-11]

% Inhibition at 1 µM [1]: 95%
% Inhibition at 1 µM [2]: 48%
% Inhibition at 1 µM [3]: 63%
% Inhibition at 1 µM [4]: 68%
Binder: Ac-SYS[Nle]EHFRWGKGVC-NH2 (not fully specified; also: oxorhenium(V) N3S1 chelate at Cys14) [metallopeptide 1-1]
